Assay results as given in patent US20230065782.

How the values were obtained:
[1] = tested on: control peptide, an HES-bearing peptide of the same length, with the same labeling, that does not contain the conformation-dependent cleavage site
[2] = tested on: eighteen amino acid peptide containing the amino acid sequence PLGIA, covalently labeled with the same fluorophore near each end (HES structure)

Substance: matrix metalloprotease-9 (MMP-9)
- fluorescence intensity on addition of the MMP [1]: The fluorescence of the latter does not increase upon addition of the MMP
- fluorescence intensity on cleavage of the HES peptide (peptide at 2 uM, pH 7.5 buffer) [2]: Cleavage of the peptide gives rise to an increase in fluorescence intensity
- reverse-phase HPLC retention time of the peptide before and after exposure to the protease [2]: After exposure to MMP-9, the major peaks were at ca. 30 and 31 minutes with the almost complete disappearance of the 38 minute peak
